Experiments:
Conditions in all cases: both partners purified
[1] = biological target: T1, tropoelastin, SHELΔ26A (Synthetic Human Elastin without domain 26A) (human, UniProt P15502-2 27-724); experiment: SEC-MALS; TG2 cross-linked complex eluting at ~10 ml, 0.5 mg/ml, Superose 6, 10 mM Tris–HCl (pH 7.4), 150 mM NaCl
T1 construct: human tropoelastin without domain 26A; residues 27–724, the 60 kDa mature form of the secreted protein following removal of the signal peptide; the precursor counted on has 724 residues (isoform lacking domain 26A); contains K38 in domain 4; also called TE; full-length TE; source: expressed in bacteria, purified as described previously [23]
T1 sequence (looked up): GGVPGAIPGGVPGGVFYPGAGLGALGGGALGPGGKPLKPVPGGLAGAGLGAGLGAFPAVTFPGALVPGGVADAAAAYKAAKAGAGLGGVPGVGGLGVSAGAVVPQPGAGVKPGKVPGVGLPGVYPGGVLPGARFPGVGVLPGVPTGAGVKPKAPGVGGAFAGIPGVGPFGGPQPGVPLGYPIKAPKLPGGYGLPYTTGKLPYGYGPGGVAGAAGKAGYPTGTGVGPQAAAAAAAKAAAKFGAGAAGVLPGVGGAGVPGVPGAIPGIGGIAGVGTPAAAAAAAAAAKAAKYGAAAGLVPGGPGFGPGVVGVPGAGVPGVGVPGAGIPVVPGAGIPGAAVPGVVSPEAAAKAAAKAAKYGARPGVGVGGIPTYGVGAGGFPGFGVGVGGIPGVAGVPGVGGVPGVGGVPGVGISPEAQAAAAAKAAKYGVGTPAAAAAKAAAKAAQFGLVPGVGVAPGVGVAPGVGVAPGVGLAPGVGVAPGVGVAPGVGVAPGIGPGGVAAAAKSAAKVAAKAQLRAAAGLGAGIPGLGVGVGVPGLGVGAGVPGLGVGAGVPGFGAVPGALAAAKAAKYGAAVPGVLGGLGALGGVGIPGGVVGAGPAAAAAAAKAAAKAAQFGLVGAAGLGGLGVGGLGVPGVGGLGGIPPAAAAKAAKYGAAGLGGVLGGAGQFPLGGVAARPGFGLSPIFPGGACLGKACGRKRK

[2] = biological target: T1, tropoelastin, SHELΔ26A (Synthetic Human …); experiment: cross-linking; PF2 and TE incubated alone or together (1:1 or 2:1) at 16 °C for 2 h in 10 mM Hepes, 500 mM NaCl, 1 mM CaCl2 (pH 7.4), then with or without TG2 from guinea pig liver for a further 4 h; read by SDS-PAGE
[3] = biological target: T1, tropoelastin, SHELΔ26A (Synthetic Human …); experiment: SEC; PF2 and TE incubated with TG2 at a 1:1 ratio, separated on a Superose 6 column in 10 mM Hepes, 500 mM NaCl, 1 mM CaCl2 (pH 7.4); fractions on SDS-PAGE

B1: fibrillin-1 PF2 fragment (domains TB1 to TB2, encoded by exons 9–17), natively glycosylated (domain or fragment)
chain: not shown
modifications: N-linked glycan at N448
notes: fibrillin-1, fragment encompassing domains TB1 to TB2, encoded by exons 9–17; includes Q669 (TB2); SAXS data on PF2, TE and the complex are deposited in the SASDB (SAS2517, 2518, 2519); also called fibrillin PF2; fibrillin PF2 construct
- stoichiometry N [1]: ~1 PF2:TE
- stoichiometry N [2]: 1 PF2:TE
- stoichiometry of the larger species [3]: 2 copies of each (2:2)

From publication PMC7610145, “Transglutaminase-Mediated Cross-Linking of Tropoelastin to Fibrillin Stabilises the Elastin Precursor Prior to Elastic Fibre Assembly” (Journal of Molecular Biology, 2020)
